Where two headings read alike, the source gives them in different places.

Assay [1] concerns the target human Type 1 mutCALR on Ba/F3 cells expressing MPL and Type 1 mutCALR (human). Description: cell-based or functional assay.
The target of assay [2] is human Type 1 mutCALR (52 bp deletion) (human).
Assay [3] deals with Human Type 1 mutCALR (human). Kind of assay: cell-based or functional assay.
Assay [4] has as its target human Type 1 mutCALR (52 bp deletion) (human). This is another data set of the same source.
Assay [5] shares this target. This is another data set of the same source.
Assay [6] shares this target. This is another data set of the same source.
The target is the same in assay [7]. This is another data set of the same source.

Sequence of human Type 1 mutCALR (52 bp deletion) (human) (chain, as listed by the source limits assumed, stated change not applied): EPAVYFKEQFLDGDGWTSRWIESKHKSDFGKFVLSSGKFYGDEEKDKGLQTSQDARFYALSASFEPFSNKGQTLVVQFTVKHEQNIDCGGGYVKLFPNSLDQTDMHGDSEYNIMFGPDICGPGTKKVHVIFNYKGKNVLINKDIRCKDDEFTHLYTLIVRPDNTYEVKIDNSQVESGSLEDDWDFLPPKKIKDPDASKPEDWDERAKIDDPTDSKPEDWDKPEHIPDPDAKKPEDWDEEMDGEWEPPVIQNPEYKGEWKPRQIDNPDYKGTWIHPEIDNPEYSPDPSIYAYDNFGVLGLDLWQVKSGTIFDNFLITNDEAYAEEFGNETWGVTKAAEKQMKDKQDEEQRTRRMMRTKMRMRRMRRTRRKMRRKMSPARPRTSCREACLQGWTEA
Sequence of Human Type 1 mutCALR (human) (chain, as listed by the source limits assumed): as the sequence (chain, as listed by the source limits assumed, stated change not applied) above
Sequence of human Type 1 mutCALR on Ba/F3 cells expressing MPL and Type 1 mutCALR (human) (chain, as listed by the source limits assumed): as the sequence (chain, as listed by the source limits assumed, stated change not applied) above

B1: anti-mutCALR antibody clone 54 (antibody, human IgG1, kappa, V domains shown)
VH: QVTLKESGPGILKPSQTLSLTCSFSGFSLSTSGMGVGWIRQPSGKGLEWLAHIWWDDDKYYNPYLKNQVTISKDTSRNQVFLKITSVDTADTATYYCARSAYGSTYGYWGQGTTLTVSS
VL: DIVLTQSPASLAVSLGQRATISCKASQSVDYDGDSFMNWYQQKPGQPPKLLIYTASILESGIPARFSGSGSGTDFTLNIHPVEEEDAATYYCQQSNEDPWTFGGGTKLEIKR
B1 returned an IC50, inhibition of pSTAT5 in assay [1] of 12.7 µg/mL.

B2: anti-mutCALR antibody clone 68 (antibody, human IgG1, lambda, N297A, V domains shown)
VH: EVQLVQSGAEVKKPGASVKVSCKVSGYTLTELSMQWVRQAPGKGLEWMGGFDPDEGETMYAEKFQGRLTVTEDTSTDTVYMELRSLTSEDTALYFCATSPGYDFFDYWGQGTLVTVSS
VL: SYVLTQPPSVSVAPGKTARITCTGTSSDVGGYNYVSWYQQKPGQAPVLVVYEVSNRPSGIPERFSGSNSGNTATLTISRVEAGDEADYYCQVWDSSNDLLIFGGGTKLTVLG
In turn, B2 returned an IC50 of inhibition of MPL-LgBiT/MPL-smBiT dimerization (NanoBiT luminescence, percent of isotype) in transfected HAP1 JAK2-knockout cells in assay [2] of 3.27 ng/mL. In assay [3], this molecule returned an IC50 of inhibition of cell proliferation (Ba/F3 cells with MPL and mutCALR Type 1) of 0.9 ng/mL.

B3: anti-mutCALR antibody clone 128 (antibody, human IgG1, lambda, N297A, V domains shown)
VH: EVQLVQSGAEVKKPGASVKVSCKVSGYTLTELSMQWVRQAPGKGLEWMGGFDPDDAETMYAEKFQGRLTVTEDTSTDTVYMELRSLTSEDTALYFCATSPGYDFFDYWGQGTLVTVSS
VL: SYELTQPPSVSVAPGKTARITCGGDNIGSKSVHWYQQKPGQAPVLVVYDDSDRPSGIPERFSGSNSGNTATLTINRVEAGDEADYYCQVWDSSNDLLIFGGGTKLTVLG
For B3, the IC50 of inhibition of cell proliferation (Ba/F3 cells with MPL and mutCALR Type 1) in assay [3] is 9.8 ng/mL.

B4: anti-mutCALR antibody clone 184 (antibody, human IgG1, lambda, N297A, V domains shown)
VH: EVQLVQSGAEVKKPGASVKVSCKVSGYTLTELSMQWVRQAPGKGLEWMGGFDPDDAETMYAEKFQGRLTVTEDTSTDTVYMELRSLTSEDTALYFCATSPGYDFFDYWGQGTLVTVSS
VL: SYVLTQPPSVSVAPGQTARITCGGSDIGDEIVHWYQQKPGQAPVLVVYDDSDRPSGIPERFSGSNSGNTATLTISRVEAGDEADYYCQVWDSSSDHLIFGGGTKLTVLG
In assay [4], B4 showed an IC50 of inhibition of MPL-LgBiT/MPL-smBiT dimerization (NanoBiT luminescence, percent of isotype) in transfected HAP1 JAK2-knockout cells of 3.77 ng/mL. The molecule further showed an IC50 of inhibition of cell proliferation (Ba/F3 cells with MPL and mutCALR Type 1) in assay [3] of 1.9 ng/mL.

B5: anti-mutCALR antibody clone 65 (antibody, human IgG1, lambda, N297A, V domains shown)
VH: EVQLVQSGAEVKKPGASVKVSCKVSGYTLTELSMQWVRQAPGKGLEWMGGFDPDDGETMYAEKFQGRLTVTEDTSTDTVYMELRSLTSEDTALYFCATSPGYDFFDYWGQGTLVTVSS
VL: SYVLTQPPSVSVAPGKTARITCTGTSSDVGGYNYVSWYQQKPGQAPVLVVYEVSNRPSGIPERFSGSNSGNTATLTISRVEAGDEADYYCQVWDSSNDLLIFGGGTKLTVLG
Regarding B5, the IC50 of inhibition of MPL-LgBiT/MPL-smBiT dimerization (NanoBiT luminescence, percent of isotype) in transfected HAP1 JAK2-knockout cells in assay [5] stood at 3.27 ng/mL. For the same molecule, the IC50 of inhibition of cell proliferation (Ba/F3 cells with MPL and mutCALR Type 1) in assay [3] was found to be 0.3 ng/mL.

B6: anti-mutCALR antibody clone 14 (antibody, human IgG1, lambda, V domains shown)
VH: EVQLVQSGAEVKKPGASVKVSCKVSGYTLTELSMQWVRQAPGKGLEWMGGFDPDDGETMYAEKFQGRLAVTEDTSTDTVYMELRSLTSEDTALYFCATSPGYDFFDYWGQGTLVTVSS
VL: SYVLTQPPSVSVAPGKTARITCGGYNIGSKFVHWYRQRPGQAPVLVVYDDRDRPSGIPERFSGSNSGNTATLTISRVEAGDEADYYCQVWDSSNDLLIFGGGTKLTVLG
Molecule B6 returned an IC50, inhibition of pSTAT5 in assay [1] of 0.06 µg/mL.

B7: anti-mutCALR antibody clone 74 (antibody, human IgG1, lambda, N297A, V domains shown)
VH: EVQLVQSGAEVKKPGASVKVSCKVSGYTLTELSMQWVRQAPGKGLEWMGGFDPDDAETMYAEKFQGRLTVTEDTSTDTVYMELSSLRSEDTAVYFCATSPGYDFFDYWGQGTLVTVSS
VL: SYVLTQPPSVSVAPGKTARITCTGTSSDVGGYNYVSWYQQKPGQAPVLVVYEVSNRPSGIPERFSGSNSGNTATLTISRVEAGDEADYYCQVWDSSNDLLIFGGGTKLTVLG
In the case of B7, the IC50 of inhibition of MPL-LgBiT/MPL-smBiT dimerization (NanoBiT luminescence, percent of isotype) in transfected HAP1 JAK2-knockout cells in assay [6] came to 8.89 ng/mL. In assay [3], the IC50 of inhibition of cell proliferation (Ba/F3 cells with MPL and mutCALR Type 1) was determined as 1 ng/mL; the Log IC50 of inhibition of cell proliferation, antibody + ruxolitinib (Ba/F3-TPOR/mutCALR type 1 cells) (Log IC50 (µg/mL)) was -1.46; the Log IC50 of inhibition of cell proliferation, antibody alone (Ba/F3-TPOR/mutCALR type 1 cells) (Log IC50 (µg/mL)) was -0.438.

B8: anti-mutCALR antibody clone 188 (antibody, human IgG1, lambda, N297A, V domains shown)
VH: EVQLVQSGAEVKKPGASVKVSCKVSGYTLTELSMQWVRQAPGKGLEWMGGFDPDEGETMYAEKFQGRLTVTEDTSTDTVYMELSSLRSEDTAVYFCATSPGYDFFDYWGQGTLVTVSS
VL: SYVLTQPPSVSVAPGQTARITCGGSDIGDEIVHWYQQKPGQAPVLVVYDDSDRPSGIPERFSGSNSGNTATLTISRVEAGDEADYYCQVWDSSSDHLIFGGGTKLTVLG
Consider B8, for which the IC50 of inhibition of MPL-LgBiT/MPL-smBiT dimerization (NanoBiT luminescence, percent of isotype) in transfected HAP1 JAK2-knockout cells in assay [7] stood at 2.48 ng/mL. For the same molecule, in assay [3], the IC50 of inhibition of cell proliferation (Ba/F3 cells with MPL and mutCALR Type 1) stood at 4.6 ng/mL.

B9: AB3: anti-mutCALR antibody including the BJ095 VH region and the BJ097 VL region from WO2019178362 fused to human constant regions (antibody, human IgG1, kappa, V domains shown)
VH: QVQLVQSGAEVKKPGASVKVSCKASGYSFTGYYIHWVRQAPGQGLEWIGYISAYNGASSYNQKFKGRATFTVDTSISTAYMELSRLRSDDTAVYYCASSMDYWGQGTLVTVSS
VL: DVVMTQSPLSLPVTLGQPASISCKSSQSLLDSDGKTYLNWLQQRPGQSPKRLIYLVSKLDSGVPDRFSGSGSGTDFTLKISRVEAEDVGVYHCWQGTHFPYTFGQGTKLIEKR
In assay [3], B9 returned an IC50 of inhibition of cell proliferation (BaF3 cells expressing MPL/mutCALR Type 1) of more than 60000 ng/mL.

B10: AB2: anti-mutCALR antibody including VH and VL regions of antibody B3 from WO2020175689 fused to human constant regions (antibody, human IgG1, kappa, V domains shown)
VH: QVQLQQSGAELVKPGSSVKISCKASGYTFTRNFIHWIKQQPGNGLEWIGWIFPGDGDTEYNQKFNGKATLTADKSSSTAYMQLSSLTSEDSAVYFCARGNYNYEYFDYWGQGVMVTVSS
VL: DIQMTQSPASLSASLGETVSIECLASEDIYSYLAWYQQKPGKSPQLLIFAANRLQDGVPSRFSGSGSGTQFSLKISGMQPEDEGDYFCLQGSKFPYTFGPGTKLELNR
In turn, B10 had an IC50 of inhibition of cell proliferation (BaF3 cells expressing MPL/mutCALR Type 1) in assay [3] of more than 60000 ng/mL.

The values are drawn from patent US20230272055A1, “ANTI-MUTANT CALRETICULIN (CALR) ANTIBODIES AND USES THEREOF” (Incyte Corporation, priority 2021, published 2023).
